# In paper PMC7184779:
# Molecular target: SADS-CoV papain-like protease 2 (PLP2) domain of nsp3, wild type (SADS-CoV)
substance,measurement,value
ubiquitin-AMC (from UniProt P0CG48 1-76) (natural protein),"kcat/Km of hydrolysis of Ub-AMC (AMC fluorescence, Michaelis-Menten fit)",62700 M⁻¹ s⁻¹
